Patent US20110243972A1 (Johns Hopkins, published 2011)

Tests used:
[1] = molecular target: T1, HLA-A2 on T2 cells (HLA-A*0201) (human); test: T2 stabilisation assay, flow cytometry with W6/32
T1 construct: Class I molecule on the T2 cell surface, stabilised by peptide; Detected with mAb W6/32; also called T2-A2
Excerpt: (§1) T2 cells were pulsed with 225 micrograms of peptide per ml overnight at room temperature before analysis by flow cytometry. T2 cells expressing HLA-A2 (A) or HLA-A24 (C) were stained with an unlabeled mouse anti-HLA class I molecule monoclonal antibody W6/32 and a goat-anti-mouse FITC-labeled IgG2a secondary antibody. T2 cells genetically modified to express A3 (B) were stained with an unlabeled mouse anti-human HLA-A3 specific monoclonal antibody GAPA3 and a FITC-labeled IgG2a secondary antibody.
(§2) Materials and Methods. Peptide/MHC binding Assays. T2 cells expressing the HLA molecule of interest were resuspended in AimV serum free media (Gibco, Grand Island, N.Y.) to a concentration of 1×10⁶ cells/ml and pulsed with 3 μg/ml beta-2 microglobulin (β₂-M) (Sigma, St. Louis, Mo.) plus peptide at 0-225 μg/ml of peptide at room temperature overnight. The cells were washed and resuspended at 2×10⁵ cells/ml. The level of stabilized MHC on the cell surface of the T2 and T2-A24 cells were analyzed by direct staining of cell samples with unlabeled anti-class I mAb W6/32 and a FITC-labeled goat-anti-mouse IgG2a secondary antibody.

[2] = molecular target: T2, HLA-A3 on T2-A3 cells (HLA-A*0301) (human); test: T2-A3 stabilisation assay, flow cytometry with GAPA3
T2 construct: Detected with the anti-HLA-A3 mAb GAPA3
Excerpt: as §1, §2

EIDESLIFY [Mesothelin A1 (309-317) peptide (EIDESLIFY)]: no binding (tested: 225 micrograms of peptide per ml) [1]; no binding (tested: 225 micrograms of peptide per ml) [2].
